Measurements published in the DeepSol protein solubility set.

Experiment: soluble on expression in E. coli; label from the status in PepcDB or PDB records

Row | Sequence | soluble on expression in E. coli
1 | MNKAPHETRVVVGMSGGVDSSVAALLLKEQGYDVIGIFMKNWDDTDENGVCTATEDYEDVVRVCNQIGIPYYAVNFEKQYWDKVFTYFLNEYKAGRTPNPDVMCNKEIKFKAFLEHAMSIGADYIATGHYARVEFRDGEYKMLRGADPNKDQTYFLNQLGQAQLSKVMFPIGHLQKADVRRIAKEAGLATAGKKDSTGICFIGERDFKEFLSHYLPAQPGVMKTLDGEVKGRHDGVMYYTIGQRHGLGIGGSGEPWFVVGKDVRENVLYVAQGFENEYLYSTSLKAVDVNWVSDRKPEAPFRCTAKFRYRQPDVGVTVHPLADGGVEVVFDAPARAVTPGQAVVFYNGEECLGGGTIDEVFRNGEKLWYVG | not soluble
2 | MSLSAFFAHLHLHSEFSLQDGLIRVKPLMQAVAQAGMPAVALTDQGNLFGAVKFYRAAVNAGVKPIIGAEIRVADADASERPARLVLLCADTQGYRTLTRLLTRGYLEGQQQGVPVVDREWLRGRCAGLIGLSGGRVGDVGRALLSGEPALAARKLEFWREQFGDRYYLELQRTGRPGDEEHVQAAVELATAHGVAVVATNDVCFLRPEDEGHHHHHH | not soluble
3 | GPGSMPPPAPPALEKKTAAGVEVDLTKMVLDTSSFLRASAQRPSMRYPSRASVSNSAFISAQEYDDLRARYSQAKRELLKVSDIQKDLDFARFELTRSQEEMKLLRASNHNLKNEVEEYVQRAEKEHKARMSLEAKMSAEGATRTEEIEFLKKTIDELRAENAKRLDYMTQQQEDEFQARLQSMREELAGAAEELARLTAEAAQAQKARELSESKLTAALTDLEKSRAVVDDCKARIDALQKECHALEQQHRDFVQQQERQNAAYLEEQKALNEERVHQVAESKNAAIAEMQEELHLWKEKTKTTAEELAAARHAASQLQDDVKQLTADRAKEVRRLAEEHRLALCELQLQMEAAIREARGSKTSLEEEAQSLRRQLAQVSTELSTVAGVLAQRERQLAKAEEELLRTKDRCVAAEQENAQLASDAQLNAEAADEAAARVERLMRQNSDMEEEFSKDLREAKDRIRTLEATLMQSKGELSALRKEQIKSADDGLAATRDLRAQAEALMEECTALKAQAGERRRLEEMARDYCQRFEAERTKVGTLEAELSAAVGRCTAVEAKLEELSRRVISQAVSRSPMQTLHPNATAASLSCHGKHRSVSSGQSYAPTGGSSMKRARTEDARVFAISGFDGNDVLLAVKQLPNVAIAECKSNMPVPSNLTHLITNGQLTIKLLTALVRGCWVLPESYVVDSLKEQTWLREEDYGFQHEEPPLLKKRIALTEAFMACKHYSTASLLLKEGGAILVDDPEQADILLCTNAEARSTQNGWNWEKMVEIIYPLKIQ | soluble
4 | MADSSSFFSSAFSSAKNLIPFAKNTEDKPVDADTASDAKDAKDSAIQEAVQNASAAINDVFTDAVDKLEEVKDTVVEQFSNGDEKKEEAVVEEKFDSVHVGVDGETAVQEAKEEVKEAQVVVKGVLADGTQIVEGVTDVAEAPVADEKKEETVAAPLDSAAPVEEHKEESHSSEHTEAPAHTEDSIVQADPEARIVFQGVLADGTQIIEAVSANPPCIQEESAPAAAVSEEVGEAVHVVPVDQAPEAPTSEAQDAAPIEEHVEVVHVAENASTPAATDAHEETKSAEEQTPVVDASPAQEIVKVEEHEHKEEAAPDESAPEAAHDSHVEETAAQVVDEVIEAVHVSANESAPEEHKEEVAAAATSEDQKEPAPASDEHTSESAVEGAIESVHIALTESAPVASDENTTEAAPGTVEEHKNEVHDPVDGASSDAPAEDHREAAASSESVEEPITAVHVEATESAAPADKVHEETKIDSAAETHADAPVVDASPAEDQASEVTEAPHVESAKSAPATSEDHKEDVAQATSEQVETQAPADEHKDDASPAEPTTVQDVIEAIPIVSTESTPAEHSAPAESAPALAEEHKDEAAPSEPVQDVPVEEVIEAVHIAPAESAPASVEEAAPSESTQAPVEEHKDATTAADSSHEEPKAESDAPAAESVETAPVEEHKDEASPTALESVEDVIEAVHVASTESAPAPVEDAASADSTQAPVEEQKDTAAAAEPSHEEAQADHAASVEDVIEAVHIASNESAPTTEAAPSESIQAEDHKDEAASTAEPAHEESVTVVEASHKEPQAESAAPVEENIESVHVASEESAPAPSGDAAPSESAPVSENPVEEVAVAYHVESIESVPTDAQSVEEPVVQQHVGTVEAAPEAAVDEESFDVVHVHSDAAHPETATPESGSEETFEKVEHSQVQEAPSSEEHNSSEPEIVEDVVEKQIVAAVASAPETQPEESPKKPRKLAEMAHESAFPVPYRSKLVEPFEPGQTLIVKGKTGEDSIRFTVNLHTNTADFSGNDVPLHVSVRFDEGKLVFNTFSKGEWGKEERKSNPYKKGDDIDIRIRAHDSKFQIFVDQKEVKEYEHRVPLSSITHFTIDGDVLVNYIHWGGKYYPVPYESGLAGEGLAPGKTLTVFGIPEKKAKRFHINLLKKNGDIALHLNARFDEKHVVRNSLINSAWGNEEREGKMPFEKAVGFDLEIHNEPYAFAVTVNGERFASYAHRLSPDEVNGLQIGGDVEITGIQLA | not soluble
5 | MATQSDLMELEMAMDPDRKAAVSHWQQQSYLDSGIHSGATTTAPSLSGKGNPEDDDVDNQVLYEWEQGFNQSFNQEQVADIDGQYAMTRAQRVRAAMFPETLDEGMQIPSTQFDSAHPTNVQRLAEPSQMLKHAVVNLINYQDDAELATRAIPELTKLLNDEDQVVVNKAAVMVHQLSKKEASRHAIMRSPQMVSAIVRTMQNTNDVETARCTSGTLHNLSHHREGLLAIFKSGGIPALVNMLGSPVDSVLFHAITTLHNLLLHQEGAKMAVRLAGGLQKMVALLNKTNVKFLAITTDCLQILAYGNQESKLIILASGGPQALVNIMRTYTYEKLLWTTSRVLKVLSVCSSNKPAIVEAGGMQALGLHLTDPSQRLVQNCLWTLRNLSDAATKQEGMEGLLGTLVQLLGSDDINVVTCAAGILSNLTCNNYKNKMMVCQVGGIEALVRTVLRAGDREDITEPAICALRHLTSRHQDAEMAQNAVRLHYGLPVVVKLLHPPSHWPLIKATVGLIRNLALCPANHAPLREQGAIPRLVQLLVRAHQDTQRRTSMGGTQQQFVEGVRMEEIVEACTGALHILARDIHNRIVIRGLNTIPLFVQLLYSPIENIQRVAAGVLCELAQDKEAAEAIEAEGATAPLTELLHSRNEGVATYAAAVLFRMSEDKPQDYKKRLSVELTSSLFRTEPMTWNETGDLGLDIGAQGEPLGYRQDDPSYRSFHSGGYGQDAMGMDPMMEHEMAGHHPGPDYPVDGLPDLGHTQDLIDGLPPGDSNQLAWFDTDL | soluble
6 | MKILYIILFIQIGWIFPLSAQKQDSIYIGTRHTLFSEILNEERKYWIYVPETKAGEKGKAYPVLYLLDGDSFFHSVVGFTRFFSSSKTSNLPPCIVVAVLNTDRTRDFTPTCSAARRDGTICPYDKPAGGGAEQFHRFLIEELRLEVENKVPANGTNFLVGHSYAGLFTLQTLSNHPESFDSYIAIDPSLWWDRGVFLQQAAKNVYQKDFSGKHLYVAFATRQRPAIKLIQFSLADSLKNKIIPEMKNKHLHVVYKKFPDEVHGTIALPAIFDGLKSLFHNTISTKEAT | not soluble
7 | MRYLSNLLCLTLTFIVCFGAERDADEEAYVLMNLLKQSIDMDQTEALPGFVSRDFTYDTCKGIWNRDKYMEYLKVFSSRPDGGMQPMSTDWKVTNAHFNDNTLYFNIHNYNQHLAIYPDLEFEAKKIGKDERYILTRGKISKCGTLEKEY | not soluble
8 | MSLEQLVLAIDLGTSGCKCALVSMEVDIRSWAFHGVPLHVSGLSAEQEPEDWWNAFMLGAHELLGADPLRRRQVVAICCSTQSEGTVCVDRNGAAIGRALLWLDKRGADSIKQRMGGGWCNLGGYGPLKLWRSLRLTGGVASLSGMDSAGHMAYILDHDPARYEKTHKFLNVLDYMNMRLSGRYCATGDSMLTAWITDNRDPHRIRYDDGLIRALGIDAGKLPELVGSTEVIGTLKPELADVLGLPRSTPVVAGAVDTSAVAVGATVRDFAPHLYLGTSSWVGAHVPFKKSSVRHHIAAVPSAVKGRYLAMAMQSAAGANLSFLRDKVLYHPDELLSDEQQPDVYALLDRIAARVPPGSRGLIYTPWLCGERSPVGDPSLRAGLINLKLEHSREDIIRAFMEGVAHNTRWMLEPFSRFIGQSSEIIVATGGGAQSDVWCQIMADVCGRVIQQPHNPIQTNARGAAFIAAVALGKLQFNDLPTLQRPHRLYEPSRSTRNLYDNRFATFKEVRKRLAPLYRRLNPSQETTEGHHHHHH | not soluble
9 | MSSSPAVKGLTDEEQKTLEPVIKTYHQFEPDPTTCTSLITQRIHAPASVVWPLIRRFDNPERYKHFVKRCRLISGDGDVGSVREVTVISGLPASTSTERLEFVDDDHRVLSFRVVGGEHRLKNYKSVTSVNEFLNQDSGKVYTVVLESYTVDIPEGNTEEDTKMFVDTVVKLNLQKLGVAATSAPMHDDE | soluble
10 | MPHPKLTPKCEAPPEKRLAHLEIRFKDRRHIIPPLFHNGWVGRNEDRTLLNDTIIEFYMCDWMRLEVFDEATRASSHVFHSFFLPKIKTCFKDFKENPPRRSELANHYNRFFRSKNDAETFLKKDILLIPVHLDKPKHWFLVIVHNPSGAVRRISDVNILDATNKVKSRRLSRRITGHVNCDENAGECRIIIMDSLVHSKKYREVIDKTHDSTFDHIRLWLLMSAAATDVDMFCTRFRKVVCQKLPQQKNSVDCGIFMMAFAEYFTKYNTAWQSLPTDALADLKMDDDIKSLLNSETPRQRLDELFQSLKA | not soluble
11 | MRGIRDPRLIPIAEKVMEGKRLSFEDGLVLYQTKDLPTLMRLANLVRERKHGHKTYFVHSIRVSQTNICYVGCTFCAFQRRFGEEGAWDWDVDEVVAWVKERYQPGLTEIHLTAGHHPKRPFAYYLDLVRALKENFPGVQVKAWTAAEIHHFSKIARLPYREVLKALKEAGLDAMPGGGAEIFAERVRRKIARAKVSAEGWLEIHRTAHELGIPTNATMLYGHIETLEERLDHMDRLRRLQDETGGFMSFIPLAFQPDGNQLARELGKKEFTTGLDDLRNLAVARLYLDNFPHIKGYWATLTPELAQVSLDWGVTDVDGTLIEERIVHMAGSPTPQGLTKRELARIILMAGRIPVERDALYREVRVWDRVEA | soluble
12 | GHMAKTDRSQPSVLARIAAFRTGLSAEASAADYLERQGYRILARRFKTRCGEIDLVAQRDALVAFVEVKARGNVDDAAYAVTPRQQSRIVAAAEAWLSRHPEHAMSELRFDAILIAPNTAPRHLPGAFDATPGS | soluble
13 | MGSDKIHHHHHHMVDNPGNLNSFRALALQVTCHAVNQASDRQEAGLMMHNTINRLAQQIAASIAFIGFDCRLIVLPEYFLTGFPMGEPLQVWADKACLEINGAEYEALGMIAQKQQIFLAGNAYELDPNFPGLYFQTCFVIDPSGSVVLRYRRLNSLFAPTPHDVWDKYLDCYGLEGVFPVAKTAIGNLAALASEEILYPEVARCLAMRGAEIFLHSTSEVYSKNLTPKDAAKITRAVENMAYVVSANSAGLANSAIPIGSVDGGSKIIDHRGIILAETGPGESMAAFAEIDLAALRRDRTRPGLNNLLSRQRFEMYAQSYSQAKFYPANTMLNKEIERKHFIQTQQETIERLTRLGII | not soluble
14 | MGSSHHHHHHSSGLVPRGSHMHMQVTLQVTPPCTQERHYEHLGRCCSRCEPGKYLSSKCTPTSDSVCLPCGPDEYLDTWNEEDKCLLHKVCDAGKALVAVDPGNHTAPRRCACTAGYHWNSDCECCRRNTECAPGFGAQHPLQLNKDTVCTPCLLGFFSDVFSSTDKCKPWTNCTLLGKLEAHQGTTESDVVCSSSMTLRRPPKEAQALEHHHHHH | soluble
15 | MSYRQMLIHRCDIYHEAAQAPSAGRFGIPADRLQPVISYPDTPDEQDVPCYFTEKTQQLIQEEPDQTVYHSFLVHFPLSADIRVNDKIIWENHKYILKLPKRIRHHHWEVVAVRDESLLEHHHHHH | soluble
16 | MTVEERSNTAKVDILGVDFDNTTMLQMVENIKTFFANQSTNNLFIVTANPEIVNYATTHQAYLELINQASYIVADGTGVVKASHRLKQPLAHRIPGIELMDECLKIAHVNHQKVFLLGATNEVVEAAQYALQQRYPNISFAHHHGYIDLEDETVVKRIKLFKPDYIFVGMGFPKQEEWIMTHENQFESTVMMGVGGSLEVFAGAKKRAPYIFRKLNIEWIYRALIDWKRIGRLKSIPIFMYKIAKAKRKIKKAK | not soluble
